Usually EC50 stands for the concentration that produces a half-maximal response. A higher EC50 goes with a less potent agent. By Kd is commonly meant the concentration at which binding is half-saturated. The low end stands for tighter binding, the high end for weaker binding. In general, koff refers to the rate constant with which the complex falls apart. A lower koff goes with a long-lived complex. What is called kon is a measure of how fast the partners come together. Low readings indicate slower complex formation, high ones faster complex formation.

Residue numbers refer to the chain shown, from its start.

Sequences and labels used below:
B1: 5D4 (antibody, V domains shown)
VH: QQLEESGGGLVKPEGSLTLTCKGSGFDFSGTYWMWWVRQAPGKGLEWIACIYVGSGSSTYYASWAKGRFTISSTSSTAVTLQATSLTAADTATYFCARGATNNVFMNYFNLWGPGTLVTVSS
VL: FEMTQTPSSVSEPVGGTVTIKCQASEDISSNLGWYQQKPGQPPKLLIYGASTLASGVPSRFKGSGSGTEFTLTISDLECADAATYYCQTSYYIDDGVNGFGGGTEVVVK
notes: Rabbit-derived clone; LEM construct: VH + rabbit IgG CH1 + human IgG1 CH2-CH3
B2: 74F11/15F5 (antibody, human IgG1, V domains shown)
VH: QEQLKESGGGLVQPGGSLKLSCKASGFDFNNYGMSWVRQAPGKGLEWIAYIYPAFHNTYYANWVNGRFTISSDNAQNTVDLQLNSLTAADTATYFCARDAGSTDYNFNLWGPGTLVTVSS
VL: DVVMTQTPASVEAAVGGTVTIKCQASEDIERYLAWYQQKPGQPPKLLIYEASKLPSGVSSRFSGSGYGTEFTLTISGVECADAATYYCQQALTIGYVDNPFGGGSEVVVK
notes: LEM construct: VH + rabbit IgG CH1 + human IgG1 CH2-CH3
B3: 63H3 (antibody, V domains shown)
VH: B2 VH with N31S, M34V, T58A, S102G, F107Y
VL: B2 VL with A13V, I21L, R31S, L33S, K45N, P55A, Y96N, K110R
notes: as for B1
B4: 9D7 (antibody, V domains shown)
VH: QSLEESGGDLVQPGASLTLTCKASGFDLNNYSILWVRQAPGKGLEWIGCIYISGGSTYYANWAKGRFAISKTSSTTVTLQMTSLTAADTATYFCARDDGTASYYLNLWGPGTLVTVSS
VL: YDMTQTPASVSEPVGGTVTIKCQASEDIYKLLAWYQQKPGQPPKLLIYAASDLESGVPSRFKGRGSGTDYTLTISDLECADAATYYCQQAYTIGNIDNSFGGGTEVVVK
notes: as for B1
B5: 10A9 (antibody, V domains shown)
VH: B4 VH with S32A, I33M, S56T, Y59F, N61S, K64T, A101T
VL: B4 VL with E12A, P13A, K30S, A49G, D52N, R64S, D69E, A80D, S99A
notes: as for B1

The target of one assay is T1, cynomolgus Trop-2-His protein (cynomolgus, UniProt P09758 27-274 (human entry)).
T1 construct: also called cynmolgus Trop-His; Kactus Cat #TRP-CM121; not shown: His tag
T1 chain: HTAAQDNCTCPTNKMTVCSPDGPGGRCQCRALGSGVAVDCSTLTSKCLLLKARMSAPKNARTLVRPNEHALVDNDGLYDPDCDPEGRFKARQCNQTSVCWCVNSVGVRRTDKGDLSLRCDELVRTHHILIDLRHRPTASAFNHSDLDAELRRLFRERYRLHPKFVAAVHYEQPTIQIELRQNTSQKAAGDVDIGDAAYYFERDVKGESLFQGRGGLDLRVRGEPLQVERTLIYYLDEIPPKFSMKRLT
In words: ELISA, coated Trop-2 protein. In short, it runs like this: (§1)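 Purified antibodies were checked for binding to human or cynomolgus Trop-2-His protein by ELISA. Maxisorp plates were coated overnight at 4° C with 0.5 μg/ml protein, blocked with PBST/3% BSA, and incubated with serially diluted antibodies. Binding was detected with HRP-conjugated anti-hIgG and TMB, read at 450 nm, and EC₅₀ values were calculated in Graphpad Prism.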
(In general: An ELISA detects its analyte on a solid surface through an enzyme-linked reagent.)
As to B1, the EC50 is 0.014 nM.
The same measure, in the same setting: with B2 the figure was 0.014 nM.
Still for that read-out and setting: the figure for B3 is 0.033 nM; for B4 it is 0.016 nM; for B5 it is 0.015 nM.

The target in another assay is T2, human Trop-2-His protein (human, UniProt P09758 27-274).
T2 construct: extracellular domain; Assay paragraphs say only 'Trop-2-His'; also called hTrop-2; Kactus Cat #TRP-HM121; not shown: His tag
T2 sequence (looked up): T1 chain with V36M, N67S, S139G, V204I
In words: ELISA, coated Trop-2 protein. A digest of the protocol:
as §1
Regarding B1, the 50% effective concentration (EC50) was determined as 0.016 nM.
The same measure, in the same setting: the figure for B2 is 0.013 nM.
Still for that read-out and setting: with B3 the figure was 0.029 nM.
Still for that read-out and setting: the figure for B4 is 0.017 nM.
Turning to B5, the response was half-maximal at 0.017 nM (EC50).

The target in a further assay is T3, human Trop-2 expressed on cell surface (human, UniProt P09758 27-323).
T3 construct: whole, on cells; also called cell surface Trop-2
T3 sequence (looked up): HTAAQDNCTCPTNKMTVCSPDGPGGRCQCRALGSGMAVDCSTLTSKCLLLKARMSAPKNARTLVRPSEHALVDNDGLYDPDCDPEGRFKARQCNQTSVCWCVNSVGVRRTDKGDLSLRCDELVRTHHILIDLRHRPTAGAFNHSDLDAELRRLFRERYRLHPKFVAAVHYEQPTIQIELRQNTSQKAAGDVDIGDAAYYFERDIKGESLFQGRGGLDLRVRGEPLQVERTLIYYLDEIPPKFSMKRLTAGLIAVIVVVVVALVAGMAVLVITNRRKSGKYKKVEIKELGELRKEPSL
In words: flow cytometry, MDA-MB-231-GFP cells. In short, it runs like this: (§2)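 Cells at 10⁶/ml in DPBS/1% FBS were incubated on ice for 1 h with antibodies in 1:3 serial dilutions from 15 μg/mL. Detection used PE anti-human Fc (1:400, 30 min on ice) with 7-AAD viability staining, read by flow cytometry. EC₅₀ from binding curves; anti-HEL hIgG1 isotype control.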
A general note: In flow cytometry, cells or beads pass a laser one at a time.
On to B1, for which the 50% effective concentration (EC50) was determined as 0.01 nM.
Still for that read-out and setting: the figure for B2 is 0.02 nM; for B3 it is 0.02 nM; for B4 it is 0.03 nM.
Still for that read-out and setting: with B5 the figure was 0.04 nM.

The next assay deals with T3, human Trop-2 expressed on cell surface. In words: flow cytometry, MCF-7 cells. In short, it runs like this: as §2
B1: the EC50 worked out at 1.2 nM.
The molecule B2 had an EC50 of 0.9 nM.
Still for that read-out and setting: with B3 the figure was 0.6 nM.
In turn, B4 had an EC50 of 1.2 nM.
Still for that read-out and setting: with B5 the figure was 1.4 nM.

The target is the same in a further assay. The assay is described as follows: cell-based or functional assay.
As for B1, the “Internalization %, MDA-MB-231, 0.25 µg/ml, 2 h” value is 56%; the “Internalization %, MDA-MB-231, 0.25 µg/ml, 4 h” value was found to be 65%; the “Internalization %, MDA-MB-231, 0.5 µg/ml, 2 h” value amounted to 49%; the “Internalization %, MDA-MB-231, 0.5 µg/ml, 4 h” value was found to be 66%. Further, the “Internalization %, MDA-MB-231, 1 µg/ml, 2 h” value was 65%; the “Internalization %, MDA-MB-231, 1 µg/ml, 4 h” value was determined as 51%; the “Internalization %, MDA-MB-231, 2 µg/ml, 2 h” value was 60%; the “Internalization %, MDA-MB-231, 2 µg/ml, 4 h” value came to 66%.
Regarding B2, the “Internalization %, MDA-MB-231, 0.25 µg/ml, 2 h” value was found to be 42%; the “Internalization %, MDA-MB-231, 0.25 µg/ml, 4 h” value was determined as 52%; the “Internalization %, MDA-MB-231, 0.5 µg/ml, 2 h” value stood at 37%; the “Internalization %, MDA-MB-231, 0.5 µg/ml, 4 h” value was found to be 45%. In addition, the “Internalization %, MDA-MB-231, 1 µg/ml, 2 h” value was determined as 42%; the “Internalization %, MDA-MB-231, 1 µg/ml, 4 h” value stood at 48%; the “Internalization %, MDA-MB-231, 2 µg/ml, 2 h” value worked out at 39%; the “Internalization %, MDA-MB-231, 2 µg/ml, 4 h” value was determined as 46%.
B3: the “Internalization %, MDA-MB-231, 0.25 µg/ml, 2 h” value worked out at 40%; the “Internalization %, MDA-MB-231, 0.25 µg/ml, 4 h” value came to 48%; the “Internalization %, MDA-MB-231, 0.5 µg/ml, 2 h” value is 39%; the “Internalization %, MDA-MB-231, 0.5 µg/ml, 4 h” value was determined as 45%. The “Internalization %, MDA-MB-231, 1 µg/ml, 2 h” value worked out at 38%; the “Internalization %, MDA-MB-231, 1 µg/ml, 4 h” value was 49%; the “Internalization %, MDA-MB-231, 2 µg/ml, 2 h” value is 37%; the “Internalization %, MDA-MB-231, 2 µg/ml, 4 h” value was 39%.
As for B4, the “Internalization %, MDA-MB-231, 0.25 µg/ml, 2 h” value turned out to be 42%; the “Internalization %, MDA-MB-231, 0.25 µg/ml, 4 h” value was found to be 52%; the “Internalization %, MDA-MB-231, 0.5 µg/ml, 2 h” value was found to be 47%; the “Internalization %, MDA-MB-231, 0.5 µg/ml, 4 h” value amounted to 55%. Also, the “Internalization %, MDA-MB-231, 1 µg/ml, 2 h” value turned out to be 43%; the “Internalization %, MDA-MB-231, 1 µg/ml, 4 h” value came out at 54%; the “Internalization %, MDA-MB-231, 2 µg/ml, 2 h” value was found to be 42%; the “Internalization %, MDA-MB-231, 2 µg/ml, 4 h” value is 49%.
For the molecule B5, the “Internalization %, MDA-MB-231, 0.25 µg/ml, 2 h” value turned out to be 54%; the “Internalization %, MDA-MB-231, 0.25 µg/ml, 4 h” value came out at 57%; the “Internalization %, MDA-MB-231, 0.5 µg/ml, 2 h” value stood at 47%; the “Internalization %, MDA-MB-231, 0.5 µg/ml, 4 h” value was found to be 53%. In addition, the “Internalization %, MDA-MB-231, 1 µg/ml, 2 h” value came to 40%; the “Internalization %, MDA-MB-231, 1 µg/ml, 4 h” value came out at 55%; the “Internalization %, MDA-MB-231, 2 µg/ml, 2 h” value turned out to be 38%; the “Internalization %, MDA-MB-231, 2 µg/ml, 4 h” value came out at 49%.

For the next assay the target is unchanged. The assay is described as follows: cell-based or functional assay. This is another data set of the same source.
For B1, the “EC50 of ADCC (NFAT-CD16 reporter), MCF-7” value was 0.57 nM and the “EC50 of ADCC (NFAT-CD16 reporter), MDA-MB-231” value is 0.07 nM.
For B2 the same measures were 0.27 nM and 0.09 nM.
For B3 the same measures were 0.17 nM and 0.03 nM.
For B4 the same measures were 0.28 nM and 0.09 nM.
For B5, the “EC50 of ADCC (NFAT-CD16 reporter), MCF-7” value turned out to be 0.32 nM and the “EC50 of ADCC (NFAT-CD16 reporter), MDA-MB-231” value turned out to be 0.06 nM.

In the next assay the target is T1, cynomolgus Trop-2-His protein. In words: BLI (Gator Prime), LEM supernatant Ab on HFC probe. A digest of the protocol: (§3)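 Antibodies from LEM transfection supernatants were diluted 1:1 in K buffer and captured on HFC probes. Association and dissociation of human or cynomolgus Trop-2-His were then followed by BLI, with blank reference subtraction and affinity from kinetic fitting. Sacituzumab govitecan at 1 μg/ml served as positive control.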
As for B1, the Kd stood at 0.256 nM, the koff worked out at 0.0001 s⁻¹ and the kon is 577000 M⁻¹ s⁻¹.
For B2 the same measures were 0.264 nM, 0.00017 s⁻¹ and 758000 M⁻¹ s⁻¹.
For B3 the same measures were 0.218 nM, 0.00016 s⁻¹ and 740000 M⁻¹ s⁻¹.
For B4 the same measures were 0.117 nM, 3.9e-05 s⁻¹ and 528000 M⁻¹ s⁻¹.
In the case of B5, the affinity, expressed as Kd, was 0.108 nM; the koff worked out at 5.3e-05 s⁻¹; the kon turned out to be 569000 M⁻¹ s⁻¹.

A further assay has as its target T2, human Trop-2-His protein. The assay is described as follows: BLI (Gator Prime), LEM supernatant Ab on HFC probe. A digest of the protocol:
as §3
Molecule B1 registered a dissociation constant Kd of 0.28 nM, a koff of 0.0001 s⁻¹ and a kon of 358000 M⁻¹ s⁻¹.
For B2 the same measures were 0.323 nM, 0.00017 s⁻¹ and 526000 M⁻¹ s⁻¹.
For B3 the same measures were 0.22 nM, 0.00016 s⁻¹ and 704000 M⁻¹ s⁻¹.
B4: the Kd was 0.113 nM, the koff is 3.9e-05 s⁻¹ and the kon came to 342000 M⁻¹ s⁻¹.
For B5 the same measures were 0.142 nM, 5.3e-05 s⁻¹ and 372000 M⁻¹ s⁻¹.

For the origin of these results see US20250206841A1 (ADEPT THERAPEUTICS, published 2025).
